Starred links: 1 amine or outer side, 2 acyl side, 3 side chain; linkers in the order of their positions; H or OH if unused. Non-standard residues stand in square brackets, D forms with d. Residues, ends and D or L forms follow the SMILES beside them. *: point of attachment. Dolaproine = CO[C@@H]([C@@H]1CCCN1)[C@@H](C)C(=O)O; Hexanoyl(6-maleimido) = O=C1C=CC(=O)N1CCCCCC(=O)*; Dil = CC[C@H](C)[C@H](NC)[C@@H](CC(=O)O)OC; PABC = O=C(OCc1ccc(N[*:1])cc1)[*:2]; X1 = C[C@@H](N*)[C@@H](O)c1ccccc1; Cit = NC(=O)NCCC[C@H](N)C(=O)O; NMeV = CN[C@H](C(=O)O)C(C)C
B1: W3195-1.53.1-p1-uIgG1L-MMAE (antibody, V domains shown)
VH: QVQLQESGPGLVKPSETLSLTCTVSGGSVISDNYYWTWVRQPPGKGLEFIGYIYYRGSTNYNPSLKNRVIISIDTSRNQFSLDLNSVTAADTAVYYCARDRRTGNSLPFDNWGQGTLVTVSS
VL: SYELTQPPSVSVSPGQTAQITCSGDKLGDKFASWYQQKSGQSPVVVIYQDNKRPSGFPERFSGSNSGNTATLTISGTQAMDEADYYCQAWDSSIVVFGGGTKLTVLG
modifications: MC-vc-PAB-MMAE conjugated to cysteine thiols after TCEP reduction (positions not stated); HIC-DAR 3.86 per antibody
notes: also called W3195-p1-MMAE; WBP3195-p1-ADC

Columns and labels:
A549 cells = assay: Cytotoxicity assay of ADC (Cell Titer Glo) on A549; type: cell-based, human; settings: for IC50: A549 (P-cadherin low expressing), 5 days, read-out: IC50 (nM), ADC toxicity; for Max Inh %: A549, 5 days
MDA-MB-453 cells = assay: Cytotoxicity assay of ADC (Cell Titer Glo) on MDA-MB-453; type: cell-based, human; settings: for IC50: MDA-MB-453 (P-cadherin low expressing), 5 days, read-out: IC50 (nM), ADC toxicity; for Max Inh %: MDA-MB-453, 5 days
NCI-H1650 cells = assay: Cytotoxicity assay of ADC (Cell Titer Glo) on NCI-H1650; type: cell-based, human; settings: NCI-H1650, 5 days
HT-29 cells = assay: Cytotoxicity assay of ADC (Cell Titer Glo) on HT-29; settings: for Max Inh %: HT-29, 5 days; for IC50: read-out: IC50 (nM), ADC cytotoxicity, HT-29 (P-cadherin low expressing), 5 days
HCC-70 cells = assay: Cytotoxicity assay of ADC (Cell Titer Glo) on HCC-70; settings: HCC-70, 5 days; for IC50: read-out: IC50 (nM), ADC cytotoxicity
HCC-1954 cells = assay: Cytotoxicity assay of ADC (Cell Titer Glo) on HCC-1954; settings: HCC-1954, 5 days; for IC50: read-out: IC50 (nM), ADC cytotoxicity
[1] = biological target: T1, human P-cadherin expressed on cells (human, UniProt P22223 108-829); assay: FACS on HCT-116 cells
Procedure: Binding of the ADCs to P-cadherin expressed on HCT-116 cells was determined by flow cytometry analysis using the same procedure as described above. […] 1×10⁵ cells/well (100 μL) were added to each well of a 96-well U-plate (Corning, #3799) and centrifuged at 1500 rpm (Eppendorf, #5810R) for 5 minutes before removing the supernatant. Antibodies serially diluted in 1% BSA/1×PBS (Ca+/Mg+) were added at 100 μL/well to the pelleted cells and incubated at 4° C. for 1 hour. […] Cells were washed two times with 180 μL/well of 1% BSA/1×PBS (Ca+/Mg+) by centrifugation at 1500 rpm for 5 minutes at 4° C. Pelleted cells were resuspended in 100 μL/well Alexa647 conjugated Goat anti-human IgG Fc (Jackson, #109-605-098) 1:500 diluted in 1% BSA/1×PBS (Ca+/Mg+) for 30 minutes at 4° C. in the dark. Cells were then washed two times as described above. After the final wash, cells were resuspended in 100 μL 1% BSA/1×PBS (Ca+/Mg+) and fluorescence values were measured with a FACS Canto II cytometer (BD Biosciences). The amount of cell surface bound anti-P-Cadherin antibody was assessed by measuring the mean fluorescence (MFI).

[2] = biological target: T1, human P-cadherin expressed on cells; assay: FACS on NCI-H1650 cells
[3] = biological target: T2, P-Cadherin ECD domain 1 (aa 108-236) (human, UniProt P22223 108-236); assay: direct ELISA, coated antigen
T2 construct: range 108-236; also called huCDH3 ECD Domain1
Procedure: (§1) The binding domains of the antibody drug conjugates to human P-Cadherin extra cellular domain (ECD) were determined by a direct protein binding ELISA. 96-well high protein binding ELISA plates (Nunc) were coated overnight at 4° ° C. with antigens in coating buffer. All wells were washed three time with PBS/0.5%. Tween-20 (v/v) and all the following wash steps in the assay were performed the same. The wells were then blocked for one hour with 2% BSA (Bovogen)/1×PBS (Ca+/Mg+) (Gibco) and washed three times. For the primary antibody binding, the testing antibodies including the BMKs and our antibodies serially diluted in 2% BSA/1×PBS (Ca+/Mg+) were added to the relevant wells and incubated at ambient temperature for two hours. Plates were washed three times prior to the addition of 100 μL of secondary antibody Goat anti-Human-IgG-F(ab′)2-HRP (Jackson) diluted in 2% BSA/1×PBS (Ca+/Mg+). Plates were incubated at room temperature for one hour, followed by six washes as describe above.
(§2) For the binding detection, 100 μL Tetramethylbenzidine (TMB) Substrate solution (Invitrogen) was added to all wells before stopping the reaction with 100 μL 2M HCl. The extent of the testing Abs binding to P-Cadherin ECD (i.e. huCDH3 ECD, Uniprot ID: P22223 aa108-654), P-Cadherin ECD domain 1 (aa 108-236), P-Cadherin ECD domain 1+2 (aa 108-348), P-Cadherin ECD domain 1+2+3 (aa 108-461), P-Cadherin ECD domain 1+2+3+4 (aa 108-550) proteins were determined by measuring the OD450-OD540 absorbance using the SpectraMax® M5e microplate reader. EC50 values were obtained by the four-parameter non-linear regression analysis using GraphPad Prism software.

[4] = biological target: T3, P-Cadherin ECD domain 1+2 (aa 108-348) (human, UniProt P22223 108-348); assay: direct ELISA, coated antigen
T3 construct: range 108-348; also called huCDH3 ECD Domain1 + 2
Procedure: as §1, §2

[5] = biological target: T4, P-Cadherin ECD domain 1+2+3 (aa 108-461) (human, UniProt P22223 108-461); assay: direct ELISA, coated antigen
T4 construct: range 108-461; also called huCDH3 ECD Domain1 + 2 + 3
Procedure: as §1, §2

[6] = biological target: T1, human P-cadherin expressed on cells; assay: cell-based or functional assay
[7] = biological target: T1, human P-cadherin expressed on cells; assay: cell-based or functional assay; remark: listed apart in the source
[8] = biological target: T1, human P-cadherin expressed on cells; assay: cell-based or functional assay; remark: listed apart in the source
[9] = biological target: T1, human P-cadherin expressed on cells; assay: cell-based or functional assay; remark: listed apart in the source
[10] = biological target: T1, human P-cadherin expressed on cells; assay: cell-based or functional assay; remark: listed apart in the source
[11] = biological target: T5, P-Cadherin ECD domain 1+2+3+4 (aa 108-550) (human, UniProt P22223 108-550); assay: direct ELISA, coated antigen
T5 construct: range 108-550; also called huCDH3 ECD Domain1 + 2 + 3 + 4
Procedure: as §1, §2

[12] = biological target: T6, P-Cadherin ECD (huCDH3 ECD, Uniprot ID: P22223 aa108-654) (human, UniProt P22223 108-654); assay: direct ELISA, coated antigen
T6 construct: range 108-654; also called extracellular domain of human P-cadherin
Procedure: as §1, §2

[13] = biological target: T1, human P-cadherin expressed on cells; assay: FACS on HCT-116 cells after 1 day in human serum at 37 C
Procedure: (§3) The antibody stability in human serum was tested by FACS. Briefly, human serum was freshly isolated by centrifuging the fresh blood twice at 4000 rpm for 10 minutes. […] As a control, antibodies serum mix was frozen immediately without 37° C. incubation. For the FACS analysis, the samples from different time points were free-thawed simultaneously at 4° C. […] The cells were washed twice with 1% BSA/1×PBS (Ca+/Mg+). Alexa647 conjugated Goat anti-human IgG Fc (Jackson, #109-605-098) 1:500 diluted in 1% BSA/1×PBS (Ca+/Mg+) were added to the cells and incubated at 4° C. for 30 minutes. Cells were washed twice in the same buffer and the mean fluorescence (MFI) of stained cells was measured using a FACS Canto II cytometer (BD Biosciences) and analyzed by FlowJo. Wells containing no antibody or secondary antibody only were used to establish background fluorescence. Four-parameter non-linear regression analysis was used to obtain EC50 values for cell binding using GraphPad Prism6 software.

[14] = biological target: T1, human P-cadherin expressed on cells; assay: FACS on HCT-116 cells after 4 days in human serum at 37 C
Procedure: as §3

[15] = biological target: T1, human P-cadherin expressed on cells; assay: FACS on HCT-116 cells after 7 days in human serum at 37 C
Procedure: as §3

[16] = biological target: T1, human P-cadherin expressed on cells; assay: FACS affinity test on NCI-H1650 cells, quantitative beads
[17] = biological target: T1, human P-cadherin expressed on cells; assay: FACS on HCT-116 cells after 14 days in human serum at 37 C
Procedure: as §3

[18] = biological target: T2, P-Cadherin ECD domain 1 (aa 108-236); assay: direct ELISA on coated huCDH3 ECD Domain1, goat anti-human IgG F(ab')2-HRP detection
Procedure: as §1, with “Plates were washed three times prior to the addition of 100 μL of secondary antibody Goat anti-Human-IgG-F(ab′)2-HRP (Jackson) diluted in 2% BSA/1×PBS (Ca+/Mg+). Plates were incubated at room temperature for one hour, followed by six washes as describe above.” left out
as §2, with “EC50 values were obtained by the four-parameter non-linear regression analysis using GraphPad Prism software.” left out

[19] = biological target: T3, P-Cadherin ECD domain 1+2 (aa 108-348); assay: direct ELISA on coated huCDH3 ECD Domain1+2, goat anti-human IgG F(ab')2-HRP detection
Procedure: as §1, with “Plates were washed three times prior to the addition of 100 μL of secondary antibody Goat anti-Human-IgG-F(ab′)2-HRP (Jackson) diluted in 2% BSA/1×PBS (Ca+/Mg+). Plates were incubated at room temperature for one hour, followed by six washes as describe above.” left out
as §2, with “EC50 values were obtained by the four-parameter non-linear regression analysis using GraphPad Prism software.” left out

T3 sequence (P22223 108-348 limits assumed): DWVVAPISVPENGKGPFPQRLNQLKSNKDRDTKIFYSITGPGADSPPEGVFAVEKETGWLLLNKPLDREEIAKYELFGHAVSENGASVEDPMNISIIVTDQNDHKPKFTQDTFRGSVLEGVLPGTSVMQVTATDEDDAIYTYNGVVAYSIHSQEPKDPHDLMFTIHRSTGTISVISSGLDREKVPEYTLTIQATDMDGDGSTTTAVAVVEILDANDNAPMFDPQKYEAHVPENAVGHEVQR
T1 sequence (P22223 108-829): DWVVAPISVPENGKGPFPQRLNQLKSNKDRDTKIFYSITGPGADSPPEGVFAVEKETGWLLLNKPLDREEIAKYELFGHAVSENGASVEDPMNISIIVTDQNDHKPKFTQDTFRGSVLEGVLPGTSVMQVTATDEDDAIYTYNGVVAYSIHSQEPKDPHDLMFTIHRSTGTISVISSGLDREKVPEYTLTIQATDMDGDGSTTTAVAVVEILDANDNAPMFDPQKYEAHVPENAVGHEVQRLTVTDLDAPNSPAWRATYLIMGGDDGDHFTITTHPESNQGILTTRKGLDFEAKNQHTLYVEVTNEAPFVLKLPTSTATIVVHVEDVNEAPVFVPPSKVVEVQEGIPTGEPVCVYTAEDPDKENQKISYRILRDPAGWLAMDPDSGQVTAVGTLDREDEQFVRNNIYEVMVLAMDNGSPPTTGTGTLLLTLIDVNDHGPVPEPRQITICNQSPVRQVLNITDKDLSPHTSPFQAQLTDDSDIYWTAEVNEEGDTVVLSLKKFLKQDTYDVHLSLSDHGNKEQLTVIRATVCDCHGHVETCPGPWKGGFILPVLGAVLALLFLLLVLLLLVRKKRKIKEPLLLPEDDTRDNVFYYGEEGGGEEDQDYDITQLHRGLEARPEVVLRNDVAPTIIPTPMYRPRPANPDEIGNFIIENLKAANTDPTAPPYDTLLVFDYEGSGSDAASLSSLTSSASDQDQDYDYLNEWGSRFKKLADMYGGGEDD
T4 sequence (P22223 108-461 limits assumed): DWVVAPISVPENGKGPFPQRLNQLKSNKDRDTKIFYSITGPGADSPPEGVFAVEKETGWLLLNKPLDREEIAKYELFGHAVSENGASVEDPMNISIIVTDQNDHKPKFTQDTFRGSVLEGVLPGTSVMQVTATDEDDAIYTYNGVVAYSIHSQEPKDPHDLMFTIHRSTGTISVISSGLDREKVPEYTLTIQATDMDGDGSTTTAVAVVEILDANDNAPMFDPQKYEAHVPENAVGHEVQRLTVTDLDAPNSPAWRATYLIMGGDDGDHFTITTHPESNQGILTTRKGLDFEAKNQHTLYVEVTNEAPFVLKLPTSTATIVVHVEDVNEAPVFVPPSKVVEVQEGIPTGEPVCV
T2 sequence (P22223 108-236 limits assumed): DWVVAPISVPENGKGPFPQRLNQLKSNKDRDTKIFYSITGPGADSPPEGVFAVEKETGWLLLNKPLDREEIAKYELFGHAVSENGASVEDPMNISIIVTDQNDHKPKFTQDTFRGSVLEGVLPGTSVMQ
T5 sequence (P22223 108-550 limits assumed): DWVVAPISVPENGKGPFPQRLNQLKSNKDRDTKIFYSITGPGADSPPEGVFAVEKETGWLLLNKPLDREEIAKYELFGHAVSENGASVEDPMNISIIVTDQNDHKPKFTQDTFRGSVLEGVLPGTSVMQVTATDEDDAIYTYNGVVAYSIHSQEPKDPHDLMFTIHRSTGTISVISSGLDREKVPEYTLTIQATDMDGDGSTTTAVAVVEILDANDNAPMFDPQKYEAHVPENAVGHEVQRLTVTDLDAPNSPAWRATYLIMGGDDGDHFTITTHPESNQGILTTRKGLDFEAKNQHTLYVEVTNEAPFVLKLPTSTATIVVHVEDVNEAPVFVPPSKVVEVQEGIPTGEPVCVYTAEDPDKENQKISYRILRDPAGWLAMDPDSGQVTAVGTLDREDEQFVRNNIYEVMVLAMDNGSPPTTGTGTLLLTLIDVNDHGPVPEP
T6 sequence (P22223 other isoform, or with tags, fused parts or gaps limits assumed): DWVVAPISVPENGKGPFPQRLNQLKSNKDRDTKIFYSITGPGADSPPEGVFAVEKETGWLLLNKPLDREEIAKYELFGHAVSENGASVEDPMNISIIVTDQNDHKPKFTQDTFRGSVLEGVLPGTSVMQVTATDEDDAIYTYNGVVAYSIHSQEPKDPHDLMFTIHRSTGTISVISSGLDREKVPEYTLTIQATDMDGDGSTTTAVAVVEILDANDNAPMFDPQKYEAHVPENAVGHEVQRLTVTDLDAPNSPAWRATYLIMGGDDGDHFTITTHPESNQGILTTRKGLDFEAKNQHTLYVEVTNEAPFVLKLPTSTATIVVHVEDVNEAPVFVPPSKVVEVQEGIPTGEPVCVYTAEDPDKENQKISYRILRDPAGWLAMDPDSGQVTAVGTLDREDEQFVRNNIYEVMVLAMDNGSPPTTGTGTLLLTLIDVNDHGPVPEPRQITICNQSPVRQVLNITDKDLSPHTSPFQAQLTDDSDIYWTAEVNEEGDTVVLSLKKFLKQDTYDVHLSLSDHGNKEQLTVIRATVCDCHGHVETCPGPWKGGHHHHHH

| Molecule | IC50 (A549 cells) | Max Inh % (A549 cells) | IC50 (MDA-MB-453 cells) | Max Inh % (MDA-MB-453 cells) | Max Inh % (NCI-H1650 cells) | Max Inh % (HT-29 cells) | IC50 (HT-29 cells) | Max Inh % (HCC-70 cells) | IC50 (HCC-70 cells) | Max Inh % (HCC-1954 cells) | IC50 (HCC-1954 cells) | Max OD [3] | Max OD [4] | Max OD [5] | further results |
| --- | --- | --- | --- | --- | --- | --- | --- | --- | --- | --- | --- | --- | --- | --- | --- |
| CC[C@H](C)[C@@H]([C@@H](CC(=O)N1CCC[C@H]1[C@H](OC)[C@@H](C)C(=O)N[C@H](C)[C@@H](O)c1ccccc1)OC)N(C)C(=O)[C@@H](NC(=O)[C@@H](NC)C(C)C)C(C)C [Free drug (MMAE), mono-methyl auristatin E] (H-[NMeV]V[Dil][Dolaproine]-X1) | 1.37 nM | 89.2% | 1.28 nM | 96.7% | 81% | 95.5% | 0.52 nM | 87.2% | 0.23 nM | 97.7% | 0.05 nM | – | – | – | – |
| CC[C@H](C)[C@@H]([C@@H](CC(=O)N1CCC[C@H]1[C@H](OC)[C@@H](C)C(=O)N[C@H](C)[C@@H](O)c1ccccc1)OC)N(C)C(=O)[C@@H](NC(=O)[C@H](C(C)C)N(C)C(=O)OCc1ccc(NC(=O)[C@H](CCCNC(N)=O)NC(=O)[C@@H](NC(=O)CCCCCN2C(=O)C=CC2=O)C(C)C)cc1)C(C)C [Free payload control (MC-VC-PAB-MMAE), MC-VC-PAB-MMAE] ({Hexanoyl(6-maleimido)}-V[Cit][PABC][NMeV]V[Dil][Dolaproine]-X1) | > 10 nM | −5.4% | > 10 nM | −0.6% | 1% | −0.1% | > 10 nM | 1.3% | > 10 nM | 20.1% | > 10 nM | – | – | – | IC50 (NCI-H1650 cells): > 10 nM |
| Isotype control (non-related hIgG1 antibody) | – | – | – | – | – | – | – | – | – | – | – | 0.014 OD450-OD540 | 0.014 OD450-OD540 | 0.015 OD450-OD540 | Max MFI [1]: 402 MFI; Max MFI [2]: 331 MFI |
| B1 | – | – | – | – | – | – | – | – | – | – | – | 0.19 OD450-OD540 | 0.16 OD450-OD540 | 0.95 OD450-OD540 | EC50 [1]: 0.17 nM; ADC Cytotoxicity on HCC-1954, IC50 [6]: 0.011 nM; ADC Cytotoxicity on HCC-70, IC50 [7]: 0.065 nM; ADC Cytotoxicity on NCI-H1650, IC50 [8]: 0.027 nM; Internalization of HCC-1954 cells in HCS assay, EC50 [9]: 0.023 nM; Internalization of NCI-H1650 cells in HCS assay, EC50 [10]: 0.22 nM; EC50 [2]: 0.075 nM; EC50 [11]: 0.17 nM; Max OD [11]: 0.75 OD450-OD540; EC50 [12]: 0.23 nM; Max OD [12]: 0.65 OD450-OD540; EC50 [5]: 0.2 nM; EC50 [13]: 0.15 nM; EC50 [14]: 0.18 nM; EC50 [15]: 0.17 nM; Kd [16]: 0.168 nM; EC50 [17]: 0.18 nM; binding result [18]: no binding (tested: about 20 nM); binding result [19]: no binding (tested: about 20 nM) |

Source: patent US20240239885A1, “ANTIBODY CONJUGATE COMPRISING ANTI-P-CADHERIN ANTIBODY AND USES THEREOF” (WUXI BIOLOGICS IRELAND LIMITED, priority 2021, published 2024)
